Patent US20250277018A1 (published 2025)

Key:
[1] = molecular target: Human serum albumin; assay: ELISA; pH 7.4
[2] = molecular target: T1, Cynomolgus monkey serum albumin; assay: ELISA
T1 chain: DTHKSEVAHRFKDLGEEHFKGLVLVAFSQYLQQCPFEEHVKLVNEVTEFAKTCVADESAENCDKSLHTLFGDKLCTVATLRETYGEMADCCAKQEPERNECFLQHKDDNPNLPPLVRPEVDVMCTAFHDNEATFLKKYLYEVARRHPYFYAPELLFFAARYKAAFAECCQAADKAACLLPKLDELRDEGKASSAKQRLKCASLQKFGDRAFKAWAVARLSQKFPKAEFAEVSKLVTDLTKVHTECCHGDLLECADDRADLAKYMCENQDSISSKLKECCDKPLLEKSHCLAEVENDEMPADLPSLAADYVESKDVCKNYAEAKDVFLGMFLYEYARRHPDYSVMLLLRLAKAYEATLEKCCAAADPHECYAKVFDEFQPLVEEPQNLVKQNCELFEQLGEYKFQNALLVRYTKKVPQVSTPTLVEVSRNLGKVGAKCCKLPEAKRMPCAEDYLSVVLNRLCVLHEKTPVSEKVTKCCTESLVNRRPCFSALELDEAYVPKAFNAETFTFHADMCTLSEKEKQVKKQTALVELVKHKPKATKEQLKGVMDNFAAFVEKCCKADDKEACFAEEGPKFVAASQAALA

[3] = molecular target: Murine serum albumin; assay: ELISA
Chain of Murine serum albumin (chain, as listed by the source): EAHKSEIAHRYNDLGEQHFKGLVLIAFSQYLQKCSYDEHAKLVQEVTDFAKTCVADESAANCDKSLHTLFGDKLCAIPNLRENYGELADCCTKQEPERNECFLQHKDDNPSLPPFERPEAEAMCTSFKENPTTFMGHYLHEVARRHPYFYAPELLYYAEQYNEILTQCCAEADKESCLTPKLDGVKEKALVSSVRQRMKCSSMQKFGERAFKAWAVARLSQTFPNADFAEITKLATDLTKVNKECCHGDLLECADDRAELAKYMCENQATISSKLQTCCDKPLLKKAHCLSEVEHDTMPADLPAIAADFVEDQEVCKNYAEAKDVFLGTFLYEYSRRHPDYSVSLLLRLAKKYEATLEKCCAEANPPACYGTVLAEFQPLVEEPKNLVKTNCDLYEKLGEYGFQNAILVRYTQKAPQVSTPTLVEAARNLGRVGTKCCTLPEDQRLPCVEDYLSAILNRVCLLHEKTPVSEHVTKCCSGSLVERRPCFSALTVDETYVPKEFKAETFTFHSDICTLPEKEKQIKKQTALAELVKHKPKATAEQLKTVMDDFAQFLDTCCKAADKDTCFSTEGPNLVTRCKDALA

[4] = molecular target: T2, Rat serum albumin; assay: ELISA
T2 chain: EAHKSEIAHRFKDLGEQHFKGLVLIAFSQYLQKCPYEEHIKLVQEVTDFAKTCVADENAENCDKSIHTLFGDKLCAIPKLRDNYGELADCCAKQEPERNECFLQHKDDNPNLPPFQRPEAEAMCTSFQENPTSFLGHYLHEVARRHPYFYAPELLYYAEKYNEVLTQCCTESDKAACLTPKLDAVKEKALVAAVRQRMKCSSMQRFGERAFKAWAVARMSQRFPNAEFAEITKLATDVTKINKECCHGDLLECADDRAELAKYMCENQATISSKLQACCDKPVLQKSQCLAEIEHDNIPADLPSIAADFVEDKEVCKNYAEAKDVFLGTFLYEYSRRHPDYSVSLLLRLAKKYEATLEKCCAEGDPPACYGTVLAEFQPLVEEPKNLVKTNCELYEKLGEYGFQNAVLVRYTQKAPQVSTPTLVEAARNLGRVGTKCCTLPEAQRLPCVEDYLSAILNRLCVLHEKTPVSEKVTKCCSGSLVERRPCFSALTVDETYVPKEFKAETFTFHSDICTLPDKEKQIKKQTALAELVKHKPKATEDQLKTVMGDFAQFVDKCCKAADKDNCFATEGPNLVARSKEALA

[5] = molecular target: 4A01v3-1; assay: ELISA
[6] = molecular target: 4A01v3-7; assay: ELISA
[7] = molecular target: 4A01v3-4; assay: ELISA
[8] = molecular target: 4A01v3-5; assay: ELISA
[9] = molecular target: 4A01v3-3; assay: ELISA
[10] = molecular target: 4A01v3-8; assay: ELISA
[11] = molecular target: 4A01v1; assay: ELISA
[12] = molecular target: 4A01v9; assay: ELISA
[13] = molecular target: 4A01v4; assay: ELISA
[14] = molecular target: 4A01v6; assay: ELISA
[15] = molecular target: 4A01v3; assay: ELISA
[16] = molecular target: 4A01v5; assay: ELISA

B1: cx12584 (VHH)
chain: GGGGDKTHTCPPCPAPGGPSVFLFPPKPKDTLMISRTPEVTCVVVDVSHEDPEVKFNWYVDGVEVHNAKTKPREEQYNSTYRVVSVLTVLHQDWLNGKEYKCKVSNKALPAPIEKTISKAKGQPREPQVYTLPPSRDELTKNQVSLTCLVKGFYPSDIAVEWESNGQPENNYKTTPPVLDSDGSFFLYSKLTVDKSRWQQGNVFSCSVMHEALHNHYTQKSLSLSPGGGSGGGSGGGSEVQLVESGGGEVQPGGSLRLSCAASGFTFSTSGMVWVRQAPGKGLEWVSTISDDARITVYAESVKGRFTISRDNAKNTVYLQMNSLRAEDTAVYYCATYRAGSRIGSYEDYYRGQGTLVTVKP
B1 was tested, and the Kd [1] was 0.0813 nM.

B2: cx12596 (bispecific antibody)
heavy: EVQLVESGGGLEQPGGSLRLSCAGSGFTFRDYAMTWVRQAPGKGLEWVSSISGSGGNTYYADSVKGRFTISRDNSKNTLYLQMNSLRAEDTAVYYCAKDRLSITIRPRYYGLDVWGQGTTVTVSSASTKGPSVFPLAPCSRSTSESTAALGCLVKDYFPEPVTVSWNSGALTSGVHTFPAVLQSSGLYSLSSVVTVPSSSLGTKTYTCNVDHKPSNTKVDKRVGGSGGSEVQLVESGGGEVQPGGSLRLSCAASGFTFSTSGMVWVRQAPGKGLEWVSTISDDARITVYAESVKGRFTISRDNAKNTVYLQMNSLRAEDTAVYYCATYRAGSRIGSYEDYYRGQGTLVTVKPGGGGDKTHTCPPCPAPGGPSVFLFPPKPKDTLMISRTPEVTCVVVDVSHEDPEVKFNWYVDGVEVHNAKTKPREEQYNSTYRVVSVLTVLHQDWLNGKEYKCKVSNKALPAPIEKTISKAKGQPREPQVYTLPPSRDELTKNQVSLTCLVKGFYPSDIAVEWESNGQPENNYKTTPPVLDSDGSFFLYSKLTVDKSRWQQGNVFSCSVMHEALHNHYTQKSLSLSP
light: DIVMTQSPLSLPVTPGEPASISCRSSQSLLYSIGYNYLDWYLQKSGQSPQLLIYLGSNRASGVPDRFSGSGSGTDFTLKISRVEAEDVGFYYCMQALQTPYTFGQGTKLEIKRTVAAPSVFIFPPSDEQLKSGTASVVCLLNNFYPREAKVQWKVDNALQSGNSQESVTEQDSKDSTYSLSSTLTLSKADYEKHKVYACEVTHQGLSSPVTKSENRGEC
Work on B2 yielded a Kd [1] of 0.0122 nM.

B3: cx12595 (bispecific antibody)
heavy: EVQLVESGGGLEQPGGSLRLSCAGSGFTFRDYAMTWVRQAPGKGLEWVSSISGSGGNTYYADSVKGRFTISRDNSKNTLYLQMNSLRAEDTAVYYCAKDRLSITIRPRYYGLDVWGQGTTVTVSSASTKGPSVFPLAPCSRSTSESTAALGCLVKDYFPEPVTVSWNSGALTSGVHTFPAVLQSSGLYSLSSVVTVPSSSLGTKTYTCNVDHKPSNTKVDKRVGGSGGSEVQLVESGGGEVQPGGSLRLSCAASGFTFSTSGMVWVRQAPGKGLEWVSTISDDARITVYAESVKGRFTISRDNAKNTVYLQMNSLRAEDTAVYYCATYRAGSRIGSYEDYYRGQGTLVTVKPGGGGESKYGPPCPPCPAPEFLGGPSVFLFPPKPKDTLYISRTPEVTCVVVDVSQEDPEVQFNWYVDGVEVHNAKTKPREEQFNSTYRVVSVLTVLHQDWLNGKEYKCKVSNKGLPSSIEKTISKAKGQPREPQVYTLPPSQEEMTKNQVSLTCLVKGFYPSDIAVEWESNGQPENNYKTTPPVLDSDGSFFLYSRLTVDKSRWQEGNVFSCSVVHEALHNHYTQKSLSLSLG
light: B2 light
Work on B3 yielded a Kd [1] of 0.0326 nM.

B4: cx12594 (bispecific antibody)
heavy: EVQLVESGGGLEQPGGSLRLSCAGSGFTFRDYAMTWVRQAPGKGLEWVSSISGSGGNTYYADSVKGRFTISRDNSKNTLYLQMNSLRAEDTAVYYCAKDRLSITIRPRYYGLDVWGQGTTVTVSSASTKGPSVFPLAPCSRSTSESTAALGCLVKDYFPEPVTVSWNSGALTSGVHTFPAVLQSSGLYSLSSVVTVPSSSLGTKTYTCNVDHKPSNTKVDKRVESKYGPPCPPCPAPEFLGGPSVFLFPPKPKDTLYISRTPEVTCVVVDVSQEDPEVQFNWYVDGVEVHNAKTKPREEQFNSTYRVVSVLTVLHQDWLNGKEYKCKVSNKGLPSSIEKTISKAKGQPREPQVYTLPPSQEEMTKNQVSLTCLVKGFYPSDIAVEWESNGQPENNYKTTPPVLDSDGSFFLYSRLTVDKSRWQEGNVFSCSVVHEALHNHYTQKSLSLSLGGSGGSEVQLVESGGGEVQPGGSLRLSCAASGFTFSTSGMVWVRQAPGKGLEWVSTISDDARITVYAESVKGRFTISRDNAKNTVYLQMNSLRAEDTAVYYCATYRAGSRIGSYEDYYRGQGTLVTVKP
light: B2 light
For B4, the Kd [1] was 0.118 nM.

B5: cx5009, hz4A01v51 VHH-hIgG1-xELL-NNT-Fc (VHH)
VHH: EVQLVESGGGEVQPGGSLRLSCAASGFTFSTSGMVWVRQAPGKGLEWVSTISDDARITVYAESVKGRFTISRDNAKNTVYLQMNSLRAEDTAVYYCATYRAGSRIGSYEDYYRGQGTLVTVKP
B5 showed a Kd [2] of 0.189 nM, a Kd [3] of 0.207 nM and a Kd [4] of 0.234 nM.

B6: cx12583 (VHH)
chain: GGGGDKTHTCPPCPAPGGPSVFLFPPKPKDTLMISRTPEVTCVVVDVSHEDPEVKFNWYVDGVEVHNAKTKPREEQYNSTYRVVSVLTVLHQDWLNGKEYKCKVSNKALPAPIEKTISKAKGQPREPQVYTLPPSRDELTKNQVSLTCLVKGFYPSDIAVEWESNGQPENNYKTTPPVLDSDGSFFLYSKLTVDKSRWQQGNVFSCSVMHEALHNHYTQKSLSLSPGSGGGSEVQLVESGGGEVQPGGSLRLSCAASGFTFSTSGMVWVRQAPGKGLEWVSTISDDARITVYAESVKGRFTISRDNAKNTVYLQMNSLRAEDTAVYYCATYRAGSRIGSYEDYYRGQGTLVTVKP
B6 gave a Kd [1] of 0.126 nM.

B7: cy (other)
chain: T1 chain
Work on B7 yielded a Kd [5] of 0.127 nM, a Kd [6] of 0.118 nM and a Kd [7] of 0.181 nM. For the same binder, the Kd [8] was 0.126 nM, the Kd [9] was 0.142 nM and the Kd [10] was 0.147 nM. For the same binder, the Kd [11] was 0.157 nM, the Kd [12] was 0.117 nM and the Kd [13] was 0.247 nM. The Kd [14] was 0.225 nM, the Kd [15] was 0.338 nM and the Kd [16] was 0.203 nM.
